Reference: patent US20250084155A1 (University of Texas, published 2025)

Target: T1, HSP70 (human HSP70; the antigen of the binning, humanization and variant binding assays) (human, UniProt P0DMV8 1-641, limits assumed)
T1 construct: also called hu HSP70
Experiment: BLI, anti-human Fc capture, antigen 100 nM
Experimental: Binding assays were performed as follows. Antibody variants were immobilized using anti-human Fc onto the surface of a series of biosensors at […]. Antigen, at 100 nM, was passed over the surface to generate a binding response. Binding data for the antibody:antigen interactions were collected at 25° C. on the biosensors. In Table 14, X=610 represents captured antigen value (nM) at the beginning of the dissociation phase (measured at 610 seconds after the biosensor was initially contacted with antigen) and X=1495 represents captured antigen value (nM) at the end of the dissociation phase (measured at 1495 seconds after the biosensor was initially contacted with antigen). In Table 14, antibodies with an X=610 value greater than 0.2 and a % dissociation less than 10% are shown in bold.

T1 sequence (P0DMV8 whole entry, change not shown): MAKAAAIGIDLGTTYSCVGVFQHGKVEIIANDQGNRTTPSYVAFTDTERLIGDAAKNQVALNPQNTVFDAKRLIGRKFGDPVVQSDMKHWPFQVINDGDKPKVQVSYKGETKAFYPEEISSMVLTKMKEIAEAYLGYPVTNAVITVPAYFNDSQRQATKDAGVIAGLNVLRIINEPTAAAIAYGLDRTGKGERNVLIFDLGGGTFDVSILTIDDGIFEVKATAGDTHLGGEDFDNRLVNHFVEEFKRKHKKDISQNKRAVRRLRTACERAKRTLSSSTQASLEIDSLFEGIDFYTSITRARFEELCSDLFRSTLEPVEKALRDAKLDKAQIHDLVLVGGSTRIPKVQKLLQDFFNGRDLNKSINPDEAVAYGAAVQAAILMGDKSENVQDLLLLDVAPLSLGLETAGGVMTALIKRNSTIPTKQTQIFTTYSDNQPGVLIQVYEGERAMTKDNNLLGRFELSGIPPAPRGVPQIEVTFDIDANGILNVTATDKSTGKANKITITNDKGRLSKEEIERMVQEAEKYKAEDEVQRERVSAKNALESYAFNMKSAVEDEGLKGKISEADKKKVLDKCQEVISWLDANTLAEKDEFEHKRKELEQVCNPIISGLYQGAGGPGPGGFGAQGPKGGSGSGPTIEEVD

| Binder | % Diss |
| --- | --- |
| h77A-1.2 (antibody, V domains shown, captured by anti-human Fc) VH: QIQLVQSGAEVKKPGASVKVSCKASGYTFTNYGMNWVRQAPGQGLEWMGWINTYTGEPRYADDFKGRFTFTTDTSTSTAYMELRSLRSDDTAVYFCARYDHAMDYWGQGTLVTVSS VL: EIVLTQSPDSLAVSLGERATINCKSSQSLLNSGTRKNYLAWYQQKAGQSPKLLIYWTSTRESGVPDRFSGSGSGTDFTLTIDSLQAEDVAVYYCKQSYTLYTFGGGTKVEIK | -1.81% |
| h77A-1.3 (antibody, V domains shown, captured by anti-human Fc) VH: QIQLVQSGAEVKKPGASVKVSCKASGYTFTNYGMNWVRQAPGQGLEWMGWINTYTGEPTYADDFKGRFTFTTDTSTSTAYMELRSLRSDDTAVYFCARYDHRMDYWGQGTLVTVSS VL: EIVLTQSPDSLAVSLGERATINCKSSQSLLNSGTRKNYLAWYQQKAGQSPKLLIYWTSTRESGVPDRFSGSGSGTDFTLTIDSLQAEDVAVYYCKQSYTLYTFGGGTKVEIK | 28.7% |
| h77A-1.4 (antibody, V domains shown, captured by anti-human Fc) VH: QIQLVQSGAEVKKPGASVKVSCKASGYTFTNYGMNWVRQAPGQGLEWMGWINTYTGEPIYADDFKGRFTFTTDTSTSTAYMELRSLRSDDTAVYFCARYDHAMDYWGQGTLVTVSS VL: EIVLTQSPDSLAVSLGERATINCKSSQSLLNSGTRKNYLAWYQQKAGQSPKLLIYWTSTRESGVPDRFSGSGSGTDFTLTIDSLQAEDVAVYYCKQSYTLYTFGGGTKVEIK | 31.8% |
| h77A-1.15 (antibody, V domains shown, captured by anti-human Fc) VH: QIQLVQSGAEVKKPGASVKVSCKASGYTFTNYGMNWVRQAPGQGLEWMGWINTYTGEPTYADDFKGRFTFTTDTSTSTAYMELRSLRSDDTAVYFCARYDHVMDYWGQGTLVTVSS VL: EIVLTQSPDSLAVSLGERATINCKSSQSLLNSGTRKNYLAWYQQKAGQSPKLLIYWTSTRESGVPDRFSGSGSGTDFTLTIDSLQAEDVAVYYCKQSYTLYTFGGGTKVEIK | 33% |
| h77A-1.9 (antibody, V domains shown, captured by anti-human Fc) VH: QIQLVQSGAEVKKPGASVKVSCKASGYTFTNYGMNWVRQAPGQGLEWMGWINTYTGEPTYADDFKGRFTFTTDTSTSTAYMELRSLRSDDTAVYFCARYDHTMDYWGQGTLVTVSS VL: EIVLTQSPDSLAVSLGERATINCKSSQSLLNSGTRKNYLAWYQQKAGQSPKLLIYWTSTRESGVPDRFSGSGSGTDFTLTIDSLQAEDVAVYYCKQSYTLYTFGGGTKVEIK | 18.3% |
| h77A-1.25 (antibody, V domains shown, captured by anti-human Fc) VH: QIQLVQSGAEVKKPGASVKVSCKASGYTFTNYGMNWVRQAPGQGLEWMGWINTYTGEPTYADDFKGRFTFTTDTSTSTAYMELRSLRSDDTAVYFCARYDHFMDYWGQGTLVTVSS VL: EIVLTQSPDSLAVSLGERATINCKSSQSLLNSGTRKNYLAWYQQKAGQSPKLLIYWTSTRESGVPDRFSGSGSGTDFTLTIDSLQAEDVAIYYCKQSYTLYTFGGGTKVEIK | 23.2% |
| h77A-1.28 (antibody, V domains shown, captured by anti-human Fc) VH: QIQLVQSGTEVKKPGASVKVSCKASGYTFTNYGMNWVRQAPGQGLEWMGWINTYTGEPTYADDFKGRFTFTTDTSTSTAYMELRSLRSDDTAVYFCARYDHTMDYWGQGTLVTVSS VL: EIVLTQSPDSLAVSLGERATINCKSSQSLLNSGTRKNYLAWYQQKAGQSPKLLIYWTSTRESGVPDRFSGSGSGTDFTLTIDSLQAEDVAVYYCKQSYTLYTFGGGTKVEIK | 18.8% |
| h77A-1.7 (antibody, V domains shown, captured by anti-human Fc) VH: QIQLVQSGAEVKKPGASVKVSCKASGYTFTNYGMNWVRQAPGQGLEWMGWINTYTGEPTYADDFKGRFTFTTDTSTSTAYMELRSLRSDDTAVYFCARYDHFMDYWGQGTLVTVSS VL: EIVLTQSPDSLAVSLGERATINCKSSQSLLNSGTRKNYLAWYQQKAGQSPKLLIYWTSTRESGVPDRFSGSGSGTDFTLTIDSLQAEDVAVYYCKQSYTLYTFGGGTKVEIK | 30.2% |
| h77A-1.20 (antibody, V domains shown, captured by anti-human Fc) VH: QIQLVQSGDEVKKPGASVKVSCKASGYTFTNYGMNWVRQAPGQGLEWMGWINTYTGEPTYSDDFKGRFTFTTDTSTSTAYMELRSLRSDDTAVYFCARYDHAMDYWGQGTLVTVSS VL: EIVLTQSPDSLAVSLGERATINCKSSQSLLNSGTRKNYLAWYQQKAGQSPKLLIYWTSTRESGVPDRFSGSGSGTDFTLTIDSLQAEDVAVYYCKQSYTLYTFGGGTKVEIK | 12.1% |
| h77A-1.23 (antibody, V domains shown, captured by anti-human Fc) VH: QIQLVQSGAEVKKPGASVKVSCKASGYTFTNYGMNWVRQAPGQGLEWMGWINTYTGEPTYADDFKGRFTFTTDTSTSTAYMELRSLRSDDTAVYFCARYDHAMDYWGQGTLVTVSS VL: EIVLTQSPDSLAVSLGERATINCKSSQSLLNSGTRKNYLSWYQQKAGQSPKLLIYWTSTRESGVPDRFSGSGSGTDFTLTIDSLQAEDVAVYYCKQSYSLYTFGGGTKVEIK | 24% |

Second part, the binder after the results:

| % Diss | Binder |
| --- | --- |
| 13.4% | h77A-1.13 (antibody, V domains shown, captured by anti-human Fc) VH: QIQLVQSGAEVKKPGASVKVSCKASGYTFTNYGMNWVRQAPGQGLEWMGWINTYTGEPTYADDFKGRFTFTTDTSTSTAYMELRSLRSDDTAVYFCARYDHPMDYWGQGTLVTVSS VL: EIVLTQSPDSLAVSLGERATINCKSSQSLLNSGTRKNYLAWYQQKAGQSPKLLIYWTSTRESGVPDRFSGSGSGTDFTLTIDSLQAEDVAVYYCKQSYTLYTFGGGTKVEIK |
| 10.7% | h77A-1.11 (antibody, V domains shown, captured by anti-human Fc) VH: QIQLVQSGAEVKKPGASVKVSCKASGYTFTNYGMNWVRQAPGQGLEWMGWINTYTGEPTYADDFKGRFTFTTDTSTSTAYMELRSLRSDDTAVYFCARYDHAMDYWGQGTLVTVSS VL: EIVLTQSPDSLAVSLGERATINCKSSQSLLNSGTRKNYLAWYQQKPGQSPKLLIYWTSTRESGVPDRFSGSGSGTDFTLTIDSLQAEDVAVYYCKQSYTLYTFGGGTKVEIK |
| 33.6% | h77A-1.24 (antibody, V domains shown, captured by anti-human Fc) VH: QIQLVQSGAEVKKPGASVKVSCKASGYTFTNYGMNWVRQAPGQGLEWMGWINTYTGEPTYADDFKGRFTFTTDTSTSTAYMELRSLRSDDTAVYFCARYDHRMDYWGQGTLVTVSS VL: EIVLTQSPDSLAVSLGERATINCKSSQSLLNSGTRKNYLTWYQQKAGQSPKLLIYWTSTRESGVPDRFSGSGSGTDFTLTIDSLQAEDVAVYYCKQSYTLYTFGGGTKVEIK |
| 10% | h77A-1.21 (antibody, V domains shown, captured by anti-human Fc) VH: QIQLVQSGDEVKKPGASVKVSCKASGYTFTNYGMNWVRQAPGQGLEWMGWINTYTGEPTYADDFKGRFTFTTDTSTSTAYMELRSLRSDDTAVYFCARYDHAMDYWGQGTLVTVSS VL: EIVLTQSPDSLAVSLGERATINCKSSQSLLNSGTRKNYLAWYQQKAGQSPKLLIYWTSTRESGVPDRFSGSGSGTDFTLSIDSLQAEDVAVYYCKQSYTLYTFGGGTKVEIK |
| 25.3% | h77A-1.5 (antibody, V domains shown, captured by anti-human Fc) VH: QIQLVQSGAEVKKPGASVKVSCKASGYTFTNYGMNWVRQAPGQGLEWMGWINTYTGEPTYADDFKGRFTFTTDTSTSTAYMELRSLRSDDTAVYFCARYDHAMDYWGQGTLVTVSS VL: EIVLTQSPDSLAVSLGERATINCKSSQSLLNSGTRKNYLAWYQQKAGQSPKLLIYWTSTRESGVPDRFSGSGSGTDFTLTIDSLQAEDVAVYYCKQSYNLYTFGGGTKVEIK |
| 11.8% | h77A-1.26 (antibody, V domains shown, captured by anti-human Fc) VH: QIQLVQSGAEVKKPGASVKVSCKASGYTFTNYGMNWVRQAPGQGLEWMGWINTYTGEPTYADDFKGRFTFTTDTSTRTAYMELRSLRSDDTAVYFCTRYDHAMDYWGQGTLVTVSS VL: EIVLTQSPDSLAVSLGERATINCKSSQSLLNSGTRKNYLAWYQQKAGQSPKLLIYWTSTRESGVPDRFSGSGSGTDFTLTIDSLQAEDVAVYYCKQSYTLYTFGGGTKVEIK |
